{"source": "patent US20260027190A1", "about": "“OVARIAN TUMOR DEUBIQUITINASE OXIDATION AND USES THEREOF” (The University of Vermont and State Agricultural College, priority 2022, published 2026)", "molecules": {"B1": {"name": "GLRX: recombinant wild-type glutaredoxin protein, deglutathionylating enzyme, administered directly to cells (protein, UniProt P35754 2-106, looked up)", "Glutaredoxin-1": "AQEFVNCKIQPGKVVVFIKPTCPYCRRAQEILSQLPIKQGLLEFVDITATNHTNEIQDYLQQLTGARTVPRVFIGKDCIGGCSDLVSLQQSGELLTRLKQIGALQ"}}, "key": {"[1]": {"system": "OTUB1 and UBCH5A", "experiment": "Interaction between OTUB1 and UBCH5A", "format": "cell-based", "conditions": "FIG. 14D", "from_the_text": "OTUB1 was previously shown to interfere with ubiquitination and subsequent proteasomal degradation of SLC7A11. Overexpression of OTUB1 decreased ubiquitinated SLC7A11 (FIG. 17). […] The OTUB1-mediated attenuation of ubiquitination can occur through multiple mechanisms. OTUB1 can act as a canonical deubiquitinase that cleaves K48 chains. Alternatively, OTUB1 also can inhibit the function of E2 conjugating enzymes, including UBCH5 and OTUB1 has been found in a complex with E2 enzymes. Additionally, binding of E2 enzymes to OTUB1 can also promote OTUB1 deubiquitinase activity dependent on the ratio of ubiquitin-charged E2 to uncharged E2 enzyme and levels of free ubiquitin. OTUB1 D88 binds E2 enzymes and suppresses Ub-conjugating activity. Stabilization of SLC7A11 by OTUB1 has been speculated to involve directly binding between OTUB1 and SLC7A11 as well as the inhibition of E2 enzymes. […] These collective observations, along with observed increases in GSH following expression of OTUB1-C91S (FIG. 6C) support a non-canonical role of OTUB1 in augmenting GSH. […] To address this possible scenario, the present disclosure determined whether OTUB1-S-glutathionylation affected the interaction between OTUB1 and UBCH5A which requires the N-terminal region containing C23. […]"}, "[2]": {"system": "mouse tracheal epithelial (MTE) cells", "experiment": "Total GSH measurement (DTNB assay) in MTE cells", "format": "cell-based", "conditions": "direct administration of recombinant protein to MTE cells", "protocol": "It has been previously shown that the pleotropic cytokine IL1B augments glycolysis in lung epithelial cells, and that interleukin 1B (IL1B) is linked to oxidative stress. The pentose phosphate pathway, an offshoot of glycolysis, regulates the redox environment by providing nicotinamide adenine dinucleotide phosphate (NADPH) reducing equivalents necessary for glutathione (GSH) homeostasis. The effects of GSH in response to IL1B were examined. Briefly, GSH was measured using a 5,5′-dithio-bis (2-nitrobenzoic acid) (DTNB) assay in both control and IL1B-stimulated mouse tracheal epithelial cells. […] Statistics on the left panel represent the total GSH levels, without differentiating between labeled and unlabeled portions of GSH (P-value*<0.05, ****<0.0001).\nA regulator of GSH homeostasis is the transporter system xC-, which exports glutamate and concomitantly imports cystine in a 1:1 ratio. Once inside the cells, cystine is reduced to two cysteines, the latter being the rate limiting amino acid required for GSH synthesis. These relationships were examined further. […] To address whether IL1B-induced increases in GSH are system xC- dependent, two system xC- inhibitors, erastin (Er) and sulfasalazine (SAS) were used. Cells were pretreated for one hour, followed by IL1B treatment for 24 hours. Then, GSH levels were measured in cells exposed to increasing doses of Er or SAS (FIG. 2G). Extracellular glutamate levels in cell culture supernatant of cells pretreated with 0.5 micromolar Er (left) or 100 micromolar SAS (right) for 1 hour before IL1B stimulation were also measured (FIG. 2H). […] System xC- inhibition is known to induce ferroptosis, an iron-dependent mode of cell death characterized by increased lipid peroxidation. However, no changes in cell viability using erastin (5 micromolar) or sulfasalazine (500 micromolar) were detected (FIG. 2I; P-value*<0.05, ***<0.001, ****<0.0001).\nPrimary mouse tracheal epithelial (MTE) cells were isolated from C57BL/6NJ wild-type or C57BL6/NJ mice lacking Glrx1 gene and cultured. Cells were grown on collagen coated plastic plates or transwell inserts with media change every 2 days until confluency. For interleukin 1B (IL1B) treatment: cells were incubated in plain Dulbecco's Modified Eagle Medium (DMEM): F12 media containing 6 mM glucose and 2 mM glutamine overnight followed by stimulation with 10 ng/ml IL1B or 0.1% bovine serum albumin (BSA) in phosphate buffered saline (PBS) (vehicle control) for 24 hours. Treatment with crastin, sulfasalazine or BSO occurred 1 hour before IL1B stimulation. Media and cells were collected for further analysis. For growing H522 and OTUB1-CRISPR-H522 cells: Roswell Park Memorial Institute (RPMI) media supplemented with 10% fetal bovine serum (FBS) and 1% pen/strep was used to grow the cells. Plasmid over-expression and OTUB1 knock-down experiments were done when cells were 60-70% confluent.\nCell lysates were prepared in 100 mM potassium phosphate buffer containing 0.6% sulfosalicylic acid, 1 mM ethylenediaminetetraacetic acid (EDTA) and 0.01% triton-x-100. To measure total glutathione (GSH), equal amounts of proteins were incubated with 3 micromolar 5,5′-dithio-bis (2-nitrobenzoic acid) (DTNB) reagent and 2.25 microgram/ml glutathione reductase followed by the addition of 240 micromolar Nicotinamide adenine dinucleotide phosphate (NADPH). Kinetic absorbance was measured every minute at 412 nm for 20 minutes. […]"}}, "data": [{"molecule": "B1", "values": [{"measurement": "interaction between OTUB1 and UBCH5A", "setting": "[1]", "result": "decreases"}, {"measurement": "GSH levels", "setting": "[2]", "result": "decreased"}]}]}
